Laboratory results reported in the supplement of paper PMC10724198.
± gives the standard deviation of the averaged measurements.

System: Saccharomyces cerevisiae
Test: protein stability index of tFT-peptide fusion (C-terminal peptide) (PSI (0-1 scale)); higher = more stable (slower turnover)
Conditions: genetic background: wild type; temperature: 30 C
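Also: PSI is a weighted mean of sequencing reads over stability bins, variants kept only with over 10 reads, mCherry proximal and sfGFP distal, peptide attached via GGGS linker.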

Sequence	protein stability index
VVVVSGFKGSCL	0.637 ± 0.065
VVWRRVIGGLVM	0.637 ± 0.031
VVWSWCWEYAAV	0.625 ± 0.013
VWCWCGWGVWGL	0.629 ± 0.063
VWFLSYLSVIFP	0.58 ± 0.04
VWGGWRRGRAWW	0.72411 ± 0.00051
VWGLGGEFWWGV	0.745 ± 0.014
VWGQGTPFRVVM	0.655 ± 0.091
VWGTVCSMRREG	0.63 ± 0.028
VWLLSNGFLAVD	0.706 ± 0.049
VWRHSGRVASLA	0.624 ± 0.0098
VWTITGFIPVVF	0.517 ± 0.032
VYEGIQEKTTRQ	0.5754 ± 0.0057
VYHQLNDRLSLG	0.70389 ± 0.00025
VYTFGASKSMLG	0.629 ± 0.035
VYVFGCVVGSGW	0.639 ± 0.032
WAAGLRVCRSVL	0.704 ± 0.052
WAASGGAARYAP	0.684 ± 0.037
WADAAYLGCWWD	0.737 ± 0.072
WAFGFLFISSAM	0.5077 ± 0.0014
WAGGRHCKGVVV	0.681 ± 0.13
WARGVAASGRFV	0.6916 ± 0.0025
WASRSGPRVTLI	0.71 ± 0.018
WCGDVLWLMSCG	0.714 ± 0.016
WCGQVFWCVKES	0.699 ± 0.039

Sequence	protein stability index
WCLDCVGFSLPE	0.687 ± 0.054
WCRVCNRLVVGV	0.5258 ± 0.0015
WDSGRWSCLRGW	0.698 ± 0.044
WDVVECCLWRYR	0.681 ± 0.034
WERREGTGMRAG	0.748 ± 0.051
WESGRNNWYMNK	0.798 ± 0.13
WEVLGGFVWASC	0.6828 ± 0.0045
WFLSGGCLFCWR	0.714 ± 0.061
WFPRLGKRSRGS	0.69 ± 0.025
WFQSSLVCDTWL	0.681 ± 0.015
WFSSPVTISTRK	0.692 ± 0.11
WGAGGGVWWGGV	0.704 ± 0.03
WGAKGLESIHVM	0.6 ± 0.019
WGCAGVGGVGGG	0.6853 ± 0.0065
WGCGGGRDGCGV	0.647 ± 0.095
WGCGVRWGVDWA	0.732 ± 0.026
WGGASIGMGFGA	0.743 ± 0.036
WGGCNTALLTIL	0.581 ± 0.018
WGGFLVDFGFQG	0.757 ± 0.046
WGGLGRVWVKLG	0.706 ± 0.038
WGGLGWVWVKLG	0.685 ± 0.072
WGGTRCGGREVV	0.692 ± 0.054
WGGVGLWGGWDG	0.723 ± 0.058
WGGVRRHGVGGS	0.648 ± 0.1
WGLIASGSIVIV	0.548 ± 0.05

Sequence	protein stability index
WGPGGRLGVGHV	0.676 ± 0.039
WGRARCAVGVSG	0.629 ± 0.0092
WGRCVGLAGAAG	0.677 ± 0.027
WGREGRVPGWAG	0.671 ± 0.11
WGRGGSGGSWGA	0.688 ± 0.018
WGRGRGEMVGRT	0.705 ± 0.038
WGRGRWEMVGRT	0.693 ± 0.037
WGRNRGASDPNL	0.7198 ± 0.0046
WGVGCVRGVWGA	0.714 ± 0.088
WGVGWVLEVLLG	0.529 ± 0.0066
WHSGVICQTVLM	0.651 ± 0.014
WICFDFLLPVAL	0.549 ± 0.025
WIDSGCALVEIA	0.701 ± 0.045
WIFPPLPPPLPR	0.7174 ± 0.0037
WILDKECFKECD	0.654 ± 0.046
WIPITSDKCNFK	0.709 ± 0.06
WKCHRTDSRKRW	0.726 ± 0.044
WKSSRSRCIHGE	0.707 ± 0.026
WKVFKGLSADVS	0.669 ± 0.026
WLGGGGTVAHSP	0.726 ± 0.1
WLPPPPPPSPSS	0.767 ± 0.0026
WLTNKYDNIVKD	0.7634 ± 0.0068
WLVADWLLALFW	0.627 ± 0.019
WLVGGGTVAHSP	0.77 ± 0.088
WLVPSGTRTGRV	0.678 ± 0.028

Sequence	protein stability index
WLWYLSTRHSKL	0.7871 ± 0.0037
WPCVGWTLCSCS	0.541 ± 0.042
WPFHADPPPPVP	0.6969 ± 0.0026
WPGRAVCLGAGW	0.734 ± 0.056
WPSHVTLPYGLV	0.6545 ± 0.0057
WQDTASNSNTTI	0.719 ± 0.024
WRCSAITASEYL	0.686 ± 0.032
WRDGSLKIKCML	0.756 ± 0.21
WRLGGGMVCVAS	0.566 ± 0.042
WRNTGSTYYMKV	0.723 ± 0.015
WRNVEITSGSPH	0.672 ± 0.063
WRRCSGGGVGSP	0.655 ± 0.084
WRRGMMGGLAIW	0.698 ± 0.012
WSGNYSNITRYI	0.66 ± 0.019
WSWTNDAFFGVV	0.681 ± 0.068
WTLSGHKHIPED	0.736 ± 0.013
WVAGPWLGRVQE	0.733 ± 0.0083
WVLFRNKSVAAS	0.527 ± 0.012
WVNGFCKKGSGH	0.713 ± 0.015
WVRLITCVRCSR	0.594 ± 0.048
WVTLGMGGECMR	0.818 ± 0.14
WWGGGGGMQGVR	0.674 ± 0.0096
WWGLGGREPGGS	0.711 ± 0.072
WYCRWWGVRGGH	0.672 ± 0.1
WYFSSPPPFFSP	0.766 ± 0.058

Sequence	protein stability index
WYGSYPLTLESY	0.613 ± 0.013
WYMKFYNKKMKE	0.702 ± 0.04
YALPPPPHPLSF	0.591 ± 0.018
YASLPQSRPLSP	0.651 ± 0.013
YCSIVRSLGSPL	0.698 ± 0.065
YDLLLLLSLSRP	0.644 ± 0.012
YFGGMGARGRER	0.687 ± 0.0081
YFRYGLELVTFG	0.5004 ± 0.0013
YFSSSPVFPPHL	0.667 ± 0.16
YFWFSRGLSVFF	0.666 ± 0.0073
YGEGSPPCMPEL	0.709 ± 0.017
YGFFCFLPVFRG	0.661 ± 0.054
YGKELRRCKWVF	0.581 ± 0.0072
YGNSFLVRPPGD	0.712 ± 0.05
YGVRCSRINRSG	0.678 ± 0.059
YGVRGFKGYYGG	0.735 ± 0.0087
YHECWRTFTLCV	0.532 ± 0.007
YHSSHTGEFLFL	0.658 ± 0.053
YIIVSQRENRRQ	0.758 ± 0.095
YINQWLNVKHGD	0.635 ± 0.058
YISLQKGVMNEL	0.728 ± 0.008
YIVARMVRAVIP	0.741 ± 0.035
YKGNVRNPTLHA	0.655 ± 0.05
YKKKKEEKNKKN	0.583 ± 0.046
YKKKKKKKNNKK	0.662 ± 0.043

Sequence	protein stability index
YKNKKKKKNNKK	0.661 ± 0.019
YLADPSPSIPIL	0.649 ± 0.02
YLDVWTGLSCQD	0.683 ± 0.11
YLGRDYYVVLWG	0.7506 ± 0.0045
YLPRHPLPPFPV	0.681 ± 0.14
YLPWFADLHPGV	0.737 ± 0.073
YLSFDKSLLSQI	0.662 ± 0.029
YLSGHLGCRVRV	0.651 ± 0.067
YLSVPVGPAMAL	0.643 ± 0.1
YMAGGQCDRLPG	0.677 ± 0.055
YNRQVDFECHKF	0.698 ± 0.044
YNVRNVSVHQLG	0.644 ± 0.015
YPALCSRFFAPS	0.711 ± 0.039
YPGSCFLDTGIW	0.6666 ± 0.0062
YPNENFALLTEH	0.653 ± 0.046
YQGSFGLCRLML	0.808 ± 0.034
YRARTADRPRDQ	0.729 ± 0.039
YRIMRRKEKEER	0.669 ± 0.026
YRLAPPPHPPPP	0.576 ± 0.021
YRLVASSHLIFF	0.661 ± 0.027
YRQAAIKNIKRK	0.683 ± 0.014
